From publication PMC8891041

Target: human parathyroid hormone type 1 receptor (hPTHR) (human) (UniProt Q03431)
Experiment: radioligand binding

Sequence of UniProt Q03431 (Q03431 27-593): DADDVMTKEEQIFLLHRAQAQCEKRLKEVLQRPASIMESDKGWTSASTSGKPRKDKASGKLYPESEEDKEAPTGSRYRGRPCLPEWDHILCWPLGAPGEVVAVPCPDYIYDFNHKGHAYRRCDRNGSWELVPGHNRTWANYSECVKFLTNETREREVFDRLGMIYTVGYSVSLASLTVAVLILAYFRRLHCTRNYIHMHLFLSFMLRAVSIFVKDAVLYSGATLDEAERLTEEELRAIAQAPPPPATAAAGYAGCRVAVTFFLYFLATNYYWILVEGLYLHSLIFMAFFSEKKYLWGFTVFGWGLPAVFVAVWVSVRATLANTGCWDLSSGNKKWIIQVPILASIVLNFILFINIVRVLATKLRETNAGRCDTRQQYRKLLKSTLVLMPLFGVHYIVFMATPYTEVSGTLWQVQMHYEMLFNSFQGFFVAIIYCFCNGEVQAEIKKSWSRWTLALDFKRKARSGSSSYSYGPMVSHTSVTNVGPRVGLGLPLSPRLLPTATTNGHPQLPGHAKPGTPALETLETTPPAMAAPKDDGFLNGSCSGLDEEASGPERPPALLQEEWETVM

For M-PTH(1-15) (peptide), the pKi was 10.8.

In the case of PTH(1-34) (peptide), the pKi is reported as 8.26.
